Assays:
[1] = target: SatR (Streptococcus suis (WT strain, name not in the material)) (UniProt G9CHX9); assay: BLI; settings: EMSA: Beyotime EMSA binding buffer, 20 min, room temperature, 4% native PAGE; proteins dialyzed in 25 mM Tris pH 7.4, 150 mM NaCl, 5% glycerol, 0.5 mM EDTA …
[2] = target: CiaR, phosphorylated (Streptococcus suis (WT strain, name not in the material)) (UniProt A0A0H3MUU9); assay: BLI; settings: EMSA: Beyotime EMSA binding buffer, 20 min, room temperature, 4% native PAGE; proteins dialyzed in 25 mM Tris pH 7.4, 150 mM NaCl, 5% glycerol, 0.5 mM EDTA …
[3] = target: T1, SatR (Streptococcus suis (WT strain, name not …, UniProt G9CHX9 1-149)); assay: EMSA; 200-800 ng SatR; EMSA: Beyotime EMSA binding buffer, 20 min, room temperature, 4% native PAGE; proteins dialyzed in 25 mM Tris pH 7.4, 150 mM NaCl, 5% glycerol, 0.5 mM EDTA, 1 mM DTT; BLI (Octet RED96) conditions not in material; settings: protein: recombinant; tags: C-terminal 6xHis (from primer; pET-30a(+)); chain copies: 2; label: biotin 3' end; blunt
[4] = target: T1, SatR; assay: EMSA; 800 ng SatR; EMSA: Beyotime EMSA binding buffer, 20 min, room temperature, 4% native PAGE; proteins dialyzed in 25 mM Tris pH 7.4, 150 mM NaCl, 5% glycerol, 0.5 mM EDTA, 1 mM DTT; BLI (Octet RED96) conditions not in material; settings: protein: recombinant; tags: C-terminal 6xHis (from primer; pET-30a(+)); chain copies: 2; label: biotin 3' end; blunt

Which Kd [1] does the source give for satAB promoter (Octet) here?
Its Kd is 61 nM.

And the Kd [2]?
The Kd was 434 nM.

B1: satRAB promoter EMSA probe (dsDNA)
DNA 1: TTGACAATAGTTCTTAAGAGAACTATAATAGTTCTCATGGTAATTATTTTCGTAGAAAG
DNA 2: CTTTCTACGAAAATAATTACCATGAGAACTATTATAGTTCTCTTAAGAACTATTGTCAA
Does B1 bind [3]?
Result: binds

B2: satAB internal fragment (EMSAneg-satR) (dsDNA)
DNA 1: CTCGCTTGGCCTTGGTGACCATTGCTTCTACGCCAGTTGCCTTGATTGCCTTGGTCGTT
DNA 2: AACGACCAAGGCAATCAAGGCAACTGGCGTAGAAGCAATGGTCACCAAGGCCAAGCGAG
Does B2 bind [4]?
Result: no binding

— publication PMC9241815, “Role of the Two-Component System CiaRH in the Regulation of Efflux Pump SatAB and Its Correlation with Fluoroquinolone Susceptibility”
